Measured values from the supplement of paper PMC10065799, “High-throughput profiling of sequence recognition by tyrosine kinases and SH2 domains using bacterial peptide display” (eLife, 2023).

Test system: Fer (mouse)
Assay: phosphorylation enrichment, bacterial display (enrichment ratio); higher = better substrate or ligand; peptides without Tyr show the background
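For SH2 binding enrichment of the phosphorylated peptide, bacterial display in this document: peptide library displayed on the E. coli surface as eCPX fusions, selected cells deep-sequenced, score is each peptide's frequency after selection divided by its frequency in the input.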
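For phosphorylation enrichment, bacterial display in this document: 11-residue human phosphosite peptides and single-mutation variants displayed on the E. coli surface, counted by deep sequencing, each peptide's frequency after selection divided by its frequency in the unselected input library; frequency after pTyr selection over input frequency; kinase dosed for 20-30% of maximal phosphorylation in three min.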

| Sequence | phosphorylation enrichment |
| --- | --- |
| LKRIAYFLCLR [LGI1_Y21_L26R] | 0.435 |
| TLGPFYPSRLF [CRYAA_Y18] | 0.464 |
| EIHTQYEAMAS [GFAP_Y242_R239H] | 0.677 |
| DSGKLYALDVL [INO80_Y1104] | 0.676 |
| KLFFIYTPGTT [SLC27A4_Y245_S247P_YF] | 0.521 |
| YGGLRCGYGVL [KRTAP20-2_Y13_Y13C] | 0.473 |
| NVDGKYSYLKV [GRM3_Y478_G475D] | 0.515 |
| RVEDACILTCN [CCT6A_Y229_Y229C] | 0.571 |
| TDTAAYEERVR [SPTB_Y474] | 0.407 |
| AEYGLYGAMVR [VSX2_Y222] | 2.03 |
| ADYYDYGHGLS [KHDRBS3_Y304] | 1.95 |
| YKWAVYCIIGR [NUP93_Y391_R388W] | 0.646 |
| YFCRWYRNQKS [EREG_Y144_R147Q] | 0.454 |
| GNLQEYLTRHV [TGFBR2_Y336] | 0.462 |
| ECIEFYELDKK [PMM2_Y145_R141C] | 0.589 |
| KDHRDYKYQPR [SOX9_Y172_P170R] | 0.445 |

Target: EPHB2 (UniProt P29323)
Sequence (P29323 whole entry, looked up): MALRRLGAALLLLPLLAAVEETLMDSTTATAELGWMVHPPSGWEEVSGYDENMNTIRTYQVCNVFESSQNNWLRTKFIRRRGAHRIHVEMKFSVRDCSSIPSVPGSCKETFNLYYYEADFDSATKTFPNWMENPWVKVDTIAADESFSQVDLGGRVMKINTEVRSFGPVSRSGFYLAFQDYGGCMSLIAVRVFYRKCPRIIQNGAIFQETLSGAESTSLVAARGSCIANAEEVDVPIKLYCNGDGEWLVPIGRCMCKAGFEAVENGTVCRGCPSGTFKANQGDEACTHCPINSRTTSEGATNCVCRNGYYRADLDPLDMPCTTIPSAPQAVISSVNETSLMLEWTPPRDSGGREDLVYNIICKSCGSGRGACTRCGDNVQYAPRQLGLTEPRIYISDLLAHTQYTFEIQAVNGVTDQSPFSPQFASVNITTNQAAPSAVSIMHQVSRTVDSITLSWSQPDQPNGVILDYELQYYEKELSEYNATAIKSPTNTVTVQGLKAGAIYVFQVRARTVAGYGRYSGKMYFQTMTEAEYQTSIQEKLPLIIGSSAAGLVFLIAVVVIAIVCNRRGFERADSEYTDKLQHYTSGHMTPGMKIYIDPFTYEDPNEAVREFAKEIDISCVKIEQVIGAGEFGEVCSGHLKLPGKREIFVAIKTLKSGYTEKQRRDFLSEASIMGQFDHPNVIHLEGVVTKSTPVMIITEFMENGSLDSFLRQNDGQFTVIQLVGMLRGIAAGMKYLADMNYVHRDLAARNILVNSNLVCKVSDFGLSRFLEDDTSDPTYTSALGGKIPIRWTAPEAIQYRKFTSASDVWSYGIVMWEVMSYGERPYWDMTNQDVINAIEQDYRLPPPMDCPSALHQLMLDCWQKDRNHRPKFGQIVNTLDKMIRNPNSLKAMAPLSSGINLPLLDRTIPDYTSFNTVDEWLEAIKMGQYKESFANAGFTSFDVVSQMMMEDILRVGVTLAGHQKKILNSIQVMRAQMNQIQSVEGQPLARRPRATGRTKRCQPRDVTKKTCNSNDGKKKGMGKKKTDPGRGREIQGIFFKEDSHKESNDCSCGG
Assay: as above

| Sequence | phosphorylation enrichment |
| --- | --- |
| LKRIAYFLCLR [LGI1_Y21_L26R] | 0.413 |
| TLGPFYPSRLF [CRYAA_Y18] | 0.493 |
| EIHTQYEAMAS [GFAP_Y242_R239H] | 0.566 |
| DSGKLYALDVL [INO80_Y1104] | 0.705 |
| KLFFIYTPGTT [SLC27A4_Y245_S247P_YF] | 0.675 |
| YGGLRCGYGVL [KRTAP20-2_Y13_Y13C] | 0.543 |
| NVDGKYSYLKV [GRM3_Y478_G475D] | 0.59 |
| RVEDACILTCN [CCT6A_Y229_Y229C] | 0.688 |
| TDTAAYEERVR [SPTB_Y474] | 0.767 |
| AEYGLYGAMVR [VSX2_Y222] | 2.5 |
| ADYYDYGHGLS [KHDRBS3_Y304] | 20.5 |
| YKWAVYCIIGR [NUP93_Y391_R388W] | 1.83 |
| YFCRWYRNQKS [EREG_Y144_R147Q] | 0.385 |
| GNLQEYLTRHV [TGFBR2_Y336] | 0.564 |
| ECIEFYELDKK [PMM2_Y145_R141C] | 0.596 |
| KDHRDYKYQPR [SOX9_Y172_P170R] | 0.424 |

Target: Fyn (UniProt P06241)
Sequence (P06241 whole entry, looked up): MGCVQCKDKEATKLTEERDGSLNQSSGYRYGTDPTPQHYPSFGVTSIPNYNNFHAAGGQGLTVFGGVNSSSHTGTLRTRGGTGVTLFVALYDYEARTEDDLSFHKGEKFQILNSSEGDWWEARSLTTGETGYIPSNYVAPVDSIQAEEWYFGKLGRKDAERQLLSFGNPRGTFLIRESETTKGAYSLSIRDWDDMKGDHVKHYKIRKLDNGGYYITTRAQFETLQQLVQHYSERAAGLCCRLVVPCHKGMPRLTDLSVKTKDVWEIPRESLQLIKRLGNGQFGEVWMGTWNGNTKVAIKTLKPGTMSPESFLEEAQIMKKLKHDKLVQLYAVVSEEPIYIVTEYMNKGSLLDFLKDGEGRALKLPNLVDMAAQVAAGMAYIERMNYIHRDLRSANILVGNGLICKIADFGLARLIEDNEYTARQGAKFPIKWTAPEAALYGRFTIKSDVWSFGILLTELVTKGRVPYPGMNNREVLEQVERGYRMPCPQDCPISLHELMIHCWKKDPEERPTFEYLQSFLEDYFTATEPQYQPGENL
Assay: as above

| Sequence | phosphorylation enrichment |
| --- | --- |
| LKRIAYFLCLR [LGI1_Y21_L26R] | 0.399 |
| TLGPFYPSRLF [CRYAA_Y18] | 0.459 |
| EIHTQYEAMAS [GFAP_Y242_R239H] | 0.514 |
| DSGKLYALDVL [INO80_Y1104] | 0.752 |
| KLFFIYTPGTT [SLC27A4_Y245_S247P_YF] | 0.447 |
| YGGLRCGYGVL [KRTAP20-2_Y13_Y13C] | 1 |
| NVDGKYSYLKV [GRM3_Y478_G475D] | 0.444 |
| RVEDACILTCN [CCT6A_Y229_Y229C] | 0.551 |
| TDTAAYEERVR [SPTB_Y474] | 0.795 |
| AEYGLYGAMVR [VSX2_Y222] | 7.64 |
| ADYYDYGHGLS [KHDRBS3_Y304] | 6.6 |
| YKWAVYCIIGR [NUP93_Y391_R388W] | 1.04 |
| YFCRWYRNQKS [EREG_Y144_R147Q] | 0.447 |
| GNLQEYLTRHV [TGFBR2_Y336] | 0.455 |
| ECIEFYELDKK [PMM2_Y145_R141C] | 0.501 |
| KDHRDYKYQPR [SOX9_Y172_P170R] | 0.61 |

Target: FGFR3 (UniProt P22607)
Sequence (P22607 whole entry, looked up): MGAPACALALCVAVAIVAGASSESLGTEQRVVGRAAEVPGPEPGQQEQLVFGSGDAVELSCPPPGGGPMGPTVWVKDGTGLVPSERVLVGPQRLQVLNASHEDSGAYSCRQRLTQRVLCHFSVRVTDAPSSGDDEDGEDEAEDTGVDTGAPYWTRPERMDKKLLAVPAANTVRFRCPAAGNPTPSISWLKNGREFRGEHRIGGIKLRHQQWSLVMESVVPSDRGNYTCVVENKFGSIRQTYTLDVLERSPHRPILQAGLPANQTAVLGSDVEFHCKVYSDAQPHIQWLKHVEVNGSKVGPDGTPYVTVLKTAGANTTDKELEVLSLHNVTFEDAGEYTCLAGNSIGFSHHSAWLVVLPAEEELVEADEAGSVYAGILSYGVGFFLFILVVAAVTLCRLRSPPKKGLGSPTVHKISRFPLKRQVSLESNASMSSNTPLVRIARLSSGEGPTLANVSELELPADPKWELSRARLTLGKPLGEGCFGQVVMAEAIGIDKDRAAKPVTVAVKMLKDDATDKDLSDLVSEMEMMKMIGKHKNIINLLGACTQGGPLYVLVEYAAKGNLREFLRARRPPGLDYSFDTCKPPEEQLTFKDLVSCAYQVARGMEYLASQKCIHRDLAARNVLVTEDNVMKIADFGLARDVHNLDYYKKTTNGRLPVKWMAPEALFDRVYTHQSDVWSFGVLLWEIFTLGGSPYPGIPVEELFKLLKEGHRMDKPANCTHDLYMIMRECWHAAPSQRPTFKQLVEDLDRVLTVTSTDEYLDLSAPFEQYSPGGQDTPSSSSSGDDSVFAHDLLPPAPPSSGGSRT
Assay: as above

| Sequence | phosphorylation enrichment |
| --- | --- |
| LKRIAYFLCLR [LGI1_Y21_L26R] | 0.601 |
| TLGPFYPSRLF [CRYAA_Y18] | 0.586 |
| EIHTQYEAMAS [GFAP_Y242_R239H] | 0.491 |
| DSGKLYALDVL [INO80_Y1104] | 0.721 |
| KLFFIYTPGTT [SLC27A4_Y245_S247P_YF] | 0.877 |
| YGGLRCGYGVL [KRTAP20-2_Y13_Y13C] | 0.632 |
| NVDGKYSYLKV [GRM3_Y478_G475D] | 0.507 |
| RVEDACILTCN [CCT6A_Y229_Y229C] | 0.968 |
| TDTAAYEERVR [SPTB_Y474] | 0.494 |
| AEYGLYGAMVR [VSX2_Y222] | 0.604 |
| ADYYDYGHGLS [KHDRBS3_Y304] | 16.8 |
| YKWAVYCIIGR [NUP93_Y391_R388W] | 0.751 |
| YFCRWYRNQKS [EREG_Y144_R147Q] | 0.548 |
| GNLQEYLTRHV [TGFBR2_Y336] | 0.584 |
| ECIEFYELDKK [PMM2_Y145_R141C] | 0.776 |
| KDHRDYKYQPR [SOX9_Y172_P170R] | 0.514 |

Target: EPHB1 (UniProt P54762)
Sequence (P54762 whole entry, looked up): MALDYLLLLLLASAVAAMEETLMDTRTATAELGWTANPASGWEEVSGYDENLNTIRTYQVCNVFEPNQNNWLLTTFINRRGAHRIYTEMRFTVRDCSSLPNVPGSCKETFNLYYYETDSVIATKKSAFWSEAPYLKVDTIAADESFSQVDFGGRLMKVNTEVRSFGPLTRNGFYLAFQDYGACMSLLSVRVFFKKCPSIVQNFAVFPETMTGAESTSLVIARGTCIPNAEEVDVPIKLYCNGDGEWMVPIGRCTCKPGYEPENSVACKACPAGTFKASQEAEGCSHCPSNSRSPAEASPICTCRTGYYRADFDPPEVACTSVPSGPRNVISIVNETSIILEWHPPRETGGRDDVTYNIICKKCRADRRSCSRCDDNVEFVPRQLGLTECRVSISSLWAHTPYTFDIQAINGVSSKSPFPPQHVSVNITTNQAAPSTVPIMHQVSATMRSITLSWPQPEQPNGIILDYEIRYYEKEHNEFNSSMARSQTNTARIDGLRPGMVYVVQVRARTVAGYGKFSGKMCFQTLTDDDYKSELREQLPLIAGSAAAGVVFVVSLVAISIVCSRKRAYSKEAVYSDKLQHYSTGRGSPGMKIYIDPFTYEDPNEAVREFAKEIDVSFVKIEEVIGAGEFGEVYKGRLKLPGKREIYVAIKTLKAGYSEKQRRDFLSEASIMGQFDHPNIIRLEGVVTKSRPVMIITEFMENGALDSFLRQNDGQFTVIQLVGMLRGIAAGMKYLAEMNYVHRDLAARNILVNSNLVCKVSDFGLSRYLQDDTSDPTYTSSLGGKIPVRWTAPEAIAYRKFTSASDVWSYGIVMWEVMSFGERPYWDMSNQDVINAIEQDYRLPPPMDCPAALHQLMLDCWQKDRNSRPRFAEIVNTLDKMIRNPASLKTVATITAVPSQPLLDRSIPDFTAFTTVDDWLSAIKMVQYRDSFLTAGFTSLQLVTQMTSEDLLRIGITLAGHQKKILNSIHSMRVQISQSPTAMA
Assay: as above

| Sequence | phosphorylation enrichment |
| --- | --- |
| LKRIAYFLCLR [LGI1_Y21_L26R] | 0.372 |
| TLGPFYPSRLF [CRYAA_Y18] | 0.47 |
| EIHTQYEAMAS [GFAP_Y242_R239H] | 0.386 |
| DSGKLYALDVL [INO80_Y1104] | 0.711 |
| KLFFIYTPGTT [SLC27A4_Y245_S247P_YF] | 0.637 |
| YGGLRCGYGVL [KRTAP20-2_Y13_Y13C] | 0.623 |
| NVDGKYSYLKV [GRM3_Y478_G475D] | 0.569 |
| RVEDACILTCN [CCT6A_Y229_Y229C] | 0.622 |
| TDTAAYEERVR [SPTB_Y474] | 0.692 |
| AEYGLYGAMVR [VSX2_Y222] | 0.824 |
| ADYYDYGHGLS [KHDRBS3_Y304] | 17.9 |
| YKWAVYCIIGR [NUP93_Y391_R388W] | 3.37 |
| YFCRWYRNQKS [EREG_Y144_R147Q] | 0.481 |
| GNLQEYLTRHV [TGFBR2_Y336] | 0.474 |
| ECIEFYELDKK [PMM2_Y145_R141C] | 0.579 |
| KDHRDYKYQPR [SOX9_Y172_P170R] | 0.397 |

Target: SHP2-C SH2
Assay: SH2 binding enrichment of the phosphorylated peptide, bacterial display (enrichment ratio); higher = better substrate or ligand; peptides without Tyr show the background

| Sequence | SH2 binding enrichment |
| --- | --- |
| LKRIAYFLCLR [LGI1_Y21_L26R] | 0.652 |
| TLGPFYPSRLF [CRYAA_Y18] | 1.13 |
| EIHTQYEAMAS [GFAP_Y242_R239H] | 0.487 |
| DSGKLYALDVL [INO80_Y1104] | 0.729 |
| KLFFIYTPGTT [SLC27A4_Y245_S247P_YF] | 0.565 |
| YGGLRCGYGVL [KRTAP20-2_Y13_Y13C] | 0.642 |
| NVDGKYSYLKV [GRM3_Y478_G475D] | 1.35 |
| RVEDACILTCN [CCT6A_Y229_Y229C] | 0.738 |
| TDTAAYEERVR [SPTB_Y474] | 0.677 |
| AEYGLYGAMVR [VSX2_Y222] | 0.636 |
| ADYYDYGHGLS [KHDRBS3_Y304] | 0.634 |
| YKWAVYCIIGR [NUP93_Y391_R388W] | 1.42 |
| YFCRWYRNQKS [EREG_Y144_R147Q] | 0.545 |
| GNLQEYLTRHV [TGFBR2_Y336] | 0.659 |
| ECIEFYELDKK [PMM2_Y145_R141C] | 0.662 |
| KDHRDYKYQPR [SOX9_Y172_P170R] | 1.08 |

Target: c-Src SH2
Assay: as above

| Sequence | SH2 binding enrichment |
| --- | --- |
| LKRIAYFLCLR [LGI1_Y21_L26R] | 0.583 |
| TLGPFYPSRLF [CRYAA_Y18] | 0.717 |
| EIHTQYEAMAS [GFAP_Y242_R239H] | 2.9 |
| DSGKLYALDVL [INO80_Y1104] | 0.668 |
| KLFFIYTPGTT [SLC27A4_Y245_S247P_YF] | 0.39 |
| YGGLRCGYGVL [KRTAP20-2_Y13_Y13C] | 0.569 |
| NVDGKYSYLKV [GRM3_Y478_G475D] | 3.85 |
| RVEDACILTCN [CCT6A_Y229_Y229C] | 0.657 |
| TDTAAYEERVR [SPTB_Y474] | 0.672 |
| AEYGLYGAMVR [VSX2_Y222] | 0.508 |
| ADYYDYGHGLS [KHDRBS3_Y304] | 0.601 |
| YKWAVYCIIGR [NUP93_Y391_R388W] | 1.36 |
| YFCRWYRNQKS [EREG_Y144_R147Q] | 0.275 |
| GNLQEYLTRHV [TGFBR2_Y336] | 0.451 |
| ECIEFYELDKK [PMM2_Y145_R141C] | 0.805 |
| KDHRDYKYQPR [SOX9_Y172_P170R] | 1.22 |

Target: Grb2 SH2 (UniProt P62993)
Sequence (P62993 whole entry, looked up): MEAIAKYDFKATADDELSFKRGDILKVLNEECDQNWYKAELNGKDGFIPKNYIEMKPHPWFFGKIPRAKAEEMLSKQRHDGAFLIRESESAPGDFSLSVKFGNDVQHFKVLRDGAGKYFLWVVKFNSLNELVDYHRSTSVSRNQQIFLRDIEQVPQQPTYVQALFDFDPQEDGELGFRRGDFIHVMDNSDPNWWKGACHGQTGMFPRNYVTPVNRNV
Assay: as above

| Sequence | SH2 binding enrichment |
| --- | --- |
| LKRIAYFLCLR [LGI1_Y21_L26R] | 0.841 |
| TLGPFYPSRLF [CRYAA_Y18] | 1.17 |
| EIHTQYEAMAS [GFAP_Y242_R239H] | 0.885 |
| DSGKLYALDVL [INO80_Y1104] | 0.744 |
| KLFFIYTPGTT [SLC27A4_Y245_S247P_YF] | 0.598 |
| YGGLRCGYGVL [KRTAP20-2_Y13_Y13C] | 0.829 |
| NVDGKYSYLKV [GRM3_Y478_G475D] | 0.752 |
| RVEDACILTCN [CCT6A_Y229_Y229C] | 0.85 |
| TDTAAYEERVR [SPTB_Y474] | 0.937 |
| AEYGLYGAMVR [VSX2_Y222] | 0.806 |
| ADYYDYGHGLS [KHDRBS3_Y304] | 1.04 |
| YKWAVYCIIGR [NUP93_Y391_R388W] | 2.41 |
| YFCRWYRNQKS [EREG_Y144_R147Q] | 0.712 |
| GNLQEYLTRHV [TGFBR2_Y336] | 0.744 |
| ECIEFYELDKK [PMM2_Y145_R141C] | 1.11 |
| KDHRDYKYQPR [SOX9_Y172_P170R] | 1.26 |
